Results reported in US20230242586A1, “RAS INHIBITORS AND USES THEREOF” (The Regents of the University of California, priority 2020, published 2023).
Ends that are not written are not given here.

Target: biotinylated wildtype K-Ras·GppNHp (His-Avi-TEV-KRAS (wildtype))
Test: TR-FRET K-Ras(wildtype) + Raf1-RBD
Conditions: chains peptide; modification not given; biotin on the Avi tag (co-expressed BirA)

IC50: > 100 µM
Binder: YFVNFRNFRTFRCG (also: cyclic, ring closure not given here) [KD2]
